# Source: patent US20250135039A1, “INHIBITOR-RESISTANT MGMT MODIFICATIONS AND MODIFICATION OF MGMT-ENCODING NUCLEIC ACIDS” (Ensoma, Inc., priority 2022, published 2025)
# Changes are numbered by the printed parent chain. Numbers in names are those of the source.
# B1: P140K: O^6BG-resistant MGMT polypeptide with K at position 140, SEQ ID NO: 8; used as control (protein)
# chain: MDKDCEMKRTTLDSPLGKLELSGCEQGLHEIKLLGKGTSAADAVEVPAPAAVLGGPEPLMQCTAWLNAYFHQPEAIEEFPVPALHHPVFQQESFTRQVLWKLLKVVKFGEVISYQQLAALAGNPKAARAVGGAMRGNPVKILIPCHRVVCSSGAVGNYSGGLAVKEWLLAHEGHRLGKPGLGGSSGLAGAWLKGAGATSGSPPAGRN
# modifications: REGION 1..207: note = Synthetic: MGMTP140K
# notes: used as control
# B2: L33F: MGMT polypeptide with mutation L33F (protein)
# chain: B1 chain with L33F, K140P
# B3: L33K: MGMT polypeptide with mutation L33K (protein)
# chain: B1 chain with L33K, K140P
# B4: L33P: MGMT polypeptide with mutation L33P (protein)
# chain: B1 chain with L33P, K140P
# B5: L33R: MGMT polypeptide with mutation L33R (protein)
# chain: B1 chain with L33R, K140P
# B6: L33W: MGMT polypeptide with mutation L33W (protein)
# chain: B1 chain with L33W, K140P
# B7: L33Y: MGMT polypeptide with mutation L33Y (protein)
# chain: B1 chain with L33Y, K140P
# B8: M134F: MGMT polypeptide with mutation M134F (protein)
# chain: B1 chain with M134F, K140P
# B9: M134V: MGMT polypeptide with mutation M134V (protein)
# chain: B1 chain with M134V, K140P
# B10: M134W: MGMT polypeptide with mutation M134W (protein)
# chain: B1 chain with M134W, K140P
# B11: M134Y: MGMT polypeptide with mutation M134Y (protein)
# chain: B1 chain with M134Y, K140P
# Test system: U251 human glioblastoma cell line
# Experiment: in vitro FM-HCR assay of MGMT activity (mPlum O^6MeG reporter plasmid)
# Type: cell-based
# Conditions: 100 μM O^6BG; U251 cells; flow cytometry 24 h after transfection; damaged/undamaged reporter; inversely related to MGMT activity
# Excerpt: The present Example includes, in part, an in vitro fluorescence multiplex host cell reactivation (FM-HCR) assay in which a reporter plasmid with O^6MeG-containing oligonucleotides is used. The oligonucleotides induce transcription errors that lead to expression of fluorescent mPlum protein. Functional MGMT will repair the O^6MeG sites and reduce mPlum expression. This represents a rapid and validated assay system to assess intracellular activity of MGMT. Further description of certain such assays is found in Nagel (2014 PNAS USA 111 (18): E1823-32, which is incorporated herein by reference.
# The present Example uses an in vitro FM-HCR assay in which a reporter plasmid with 0° MeG-containing oligonucleotides is used to assay MGMT activity in cells. The O^6MeG-containing oligonucleotides induce transcription errors that lead to expression of fluorescent mPlum protein. Functional MGMT will repair the O'MeG sites and reduce mPlum expression. This represents a rapid and validated assay system to assess intracellular activity of MGMT. Further description of certain such assays is found in Nagel et al., 2014 PNAS USA 111 (18): E1823-32 and Piett et al., 2021 Nat. Protoc. 16 (9): 4265-4298, each of which is incorporated herein by reference.
# The in vitro FM-HCR assay was performed using the U251 human glioblastoma cell line. The cells were cultured in DMEM with 10% FBS and passaged every three days.
# To express MGMT variants in the cells, plasmids encoding each MGMT variant were designed and generated by either de novo synthesis or cloning into the pTwist EF1 Alpha Puro vector at the HindII-BamHI multiple cloning site. The pTwist EF1 Alpha Puro plasmid vector drives expression of the MGMT transcript from a human EF1-alpha promoter including intron 1 and an SV40 polyadenylation signal. Plasmids encoding the MGMT variants were purified using standard molecular biology techniques from E. coli with low endotoxins. Plasmids encoding wild-type MGMT or O^6BG-resistant MGMT^P140K were also designed and generated for use as controls.
# To perform the in vitro FM-HCR assay, U251 cells were seeded in 12-well plates at a density of 50,000 cells per well in 1 mL culture media. The following day, the media was changed to 1 mL of culture media containing O^6BG (100 μM O^6BG and 0.1% DMSO final) or 0.1% DMSO; and the cells were transfected with 1,000 ng of a plasmid cocktail using Lipofectamine 3000 (ThermoFisher Scientific) at 1.8 μL Lipofectamine 3000 Reagent and 2 μL P3000 reagent in Opti-MEM medium (ThermoFisher Scientific). […] For the “undamaged” condition, the plasmid cocktail replaced the mPlum O^6MeG reporter plasmid with 100 ng of a plasmid expressing mPlum. The plasmid encoding BFP was used as an internal transfection control. For transfections where no MGMT encoding plasmid is used (no pMGMT), 250 ng of additional carrier plasmid was used to maintain a total DNA amount of 1,000 ng in each transfection. Four hours after transfection, the transfection medium was changed.
# All transfected cells were analyzed by flow cytometry at 24-hours after transfection. Data was analyzed as previously described in Nagel et al., 2014 PNAS USA 111 (18): E1823-32 and Piett et al., 2021 Nat. Protoc. 16 (9): 4265-4298. For each condition, normalized reporter expression was determined by taking the product of the mPlum-positive cell count and the mean mPlum fluorescence intensity in mPlum-positive cells and dividing it by the product of the BFP-positive cell count and the mean BFP fluorescence intensity in BFP-positive cells. Next, for each MGMT variant, the percent reporter expression was determined by taking the normalized reporter expression in the “damaged” condition and dividing it by the normalized reporter expression in the “undamaged” condition, and then multiplying by 100 to obtain a percent value. […]
row,Molecule,"Reporter expression (%) mean, O^6BG [%]"
1,B1,34.8
2,B2,77.0
3,B3,62.3
4,B4,54.7
5,B5,58.3
6,B6,57.7
7,B7,77.3
8,B8,97.0
9,B9,66.0
10,B10,112.3
11,B11,106.3

# Same assay, conditions: 0.1% DMSO; U251 cells; flow cytometry 24 h after transfection; damaged/undamaged reporter; inversely related to MGMT activity
row,Molecule,"Reporter expression (%) mean, DMSO [%]"
1,B1,30.2
2,B2,14.3
3,B3,16.0
4,B4,12.3
5,B5,15.0
6,B6,14.3
7,B7,17.0
8,B8,51.3
9,B9,17.8
10,B10,103.5
11,B11,108.0

# Same assay, conditions: DMSO condition; determined from percent reporter expression
row,Molecule,MGMT activity (a.u.) DMSO [a.u.]
1,B1,3.31
2,B2,6.98
3,B3,6.25
4,B4,8.11
5,B5,6.67
6,B6,6.98
7,B7,5.88
8,B8,1.95
9,B9,5.63
10,B10,0.97
11,B11,0.93

# Same assay, conditions: DMSO condition; relative to wild-type MGMT in same condition
row,Molecule,MGMT activity (% of WT) DMSO
1,B1,61.3 % of WT
2,B2,129.1 % of WT
3,B3,115.6 % of WT
4,B4,150.0 % of WT
5,B5,123.3 % of WT
6,B6,129.1 % of WT
7,B7,108.8 % of WT
8,B8,36.0 % of WT
9,B9,104.2 % of WT
10,B10,17.9 % of WT
11,B11,17.1 % of WT

# Same assay, conditions: MGMT activity (a.u.) in O^6BG divided by DMSO x 100; higher values indicate resistance
row,Molecule,Relative MGMT activity (%)
1,B1,86.8
2,B2,18.6
3,B3,25.7
4,B4,22.6
5,B5,25.7
6,B6,24.9
7,B7,22.0
8,B8,52.9
9,B9,26.9
10,B10,92.1
11,B11,101.6

# Same assay, conditions: O^6BG condition; determined from percent reporter expression
row,Molecule,MGMT activity (a.u.) O^6BG [a.u.]
1,B1,2.87
2,B2,1.30
3,B3,1.61
4,B4,1.83
5,B5,1.71
6,B6,1.73
7,B7,1.29
8,B8,1.03
9,B9,1.52
10,B10,0.89
11,B11,0.94

# Same assay, conditions: O^6BG condition; relative to wild-type MGMT in same condition
row,Molecule,MGMT activity (% of WT) O^6BG
1,B1,201.1 % of WT
2,B2,90.9 % of WT
3,B3,112.4 % of WT
4,B4,128.0 % of WT
5,B5,120.0 % of WT
6,B6,121.4 % of WT
7,B7,90.6 % of WT
8,B8,72.2 % of WT
9,B9,106.1 % of WT
10,B10,62.3 % of WT
11,B11,65.8 % of WT

# Same assay, conditions: lower values indicate resistance to O^6BG
row,Molecule,Ratio percent reporter expression (O^6BG/DMSO)
1,B1,1.15
2,B2,5.37
3,B3,3.89
4,B4,4.43
5,B5,3.89
6,B6,4.02
7,B7,4.54
8,B8,1.89
9,B9,3.72
10,B10,1.09
11,B11,0.98

# Same assay, conditions: percentage difference in relative MGMT activity between variant and wild-type MGMT
row,Molecule,O^6BG resistance relative to WT (%)
1,B1,228.4
2,B2,−29.6
3,B3,−2.7
4,B4,−14.6
5,B5,−2.7
6,B6,−6.0
7,B7,−16.7
8,B8,100.2
9,B9,1.8
10,B10,248.6
11,B11,284.3
